B1: Sperm-associated microtubule inner protein 4 (Homo sapiens), Q8N865 (parent)
chain: MEVIHGRPYCCRELEGADILSNTFYSNELHNPLQTVTRPTASEDRYQELRESLQQCRLPWGAEREYGGIIPISLPEDHRPKYEPPRVMGKGHQHYGFGGETWPRKLPVEQFYYLTQNKKSDVYGNDSLIPKPPNSTVGEICLPYPIEHPYHTHICRGAMFPTFTSPEDLYTGIKARTQQPFPPTVPTKAYDSTVLKTRGNPYRYELIDIPMDSKKKALTWPGQGVYYDFPRGVEKNKPVFYPKPPKTFAPNTSLNSWDPICSAKEANIQRNLERSHWLTSYTHDFTGLGPMDPLELDDYHEKMVAELTRKIGFDPEPQEKFHPVFKPPRPLEGRIARLIQNRRSLEAIVQQRPRSCPDCTPRVLCNFHTFVPSSKEMVALSDNIPAGVTHKNQDIEEKIIEEQSLLSTYELPSCYPTKDLTSIYDIKPFPKITDTKKTEDLYWRQQSLKTQPTPYCKPDHWIHYENLKSPLRDQYNMCPDPVSLSKPSVLQNKQDTEAFTLEHFLSKPEEELFLNMENNEETRPVLGWIPRAGVTKPQTNLLELKNSFSKTGAQKRFHKSILEDHKDLRDNEHSGMKHQFYGHNSYYFYN
partner: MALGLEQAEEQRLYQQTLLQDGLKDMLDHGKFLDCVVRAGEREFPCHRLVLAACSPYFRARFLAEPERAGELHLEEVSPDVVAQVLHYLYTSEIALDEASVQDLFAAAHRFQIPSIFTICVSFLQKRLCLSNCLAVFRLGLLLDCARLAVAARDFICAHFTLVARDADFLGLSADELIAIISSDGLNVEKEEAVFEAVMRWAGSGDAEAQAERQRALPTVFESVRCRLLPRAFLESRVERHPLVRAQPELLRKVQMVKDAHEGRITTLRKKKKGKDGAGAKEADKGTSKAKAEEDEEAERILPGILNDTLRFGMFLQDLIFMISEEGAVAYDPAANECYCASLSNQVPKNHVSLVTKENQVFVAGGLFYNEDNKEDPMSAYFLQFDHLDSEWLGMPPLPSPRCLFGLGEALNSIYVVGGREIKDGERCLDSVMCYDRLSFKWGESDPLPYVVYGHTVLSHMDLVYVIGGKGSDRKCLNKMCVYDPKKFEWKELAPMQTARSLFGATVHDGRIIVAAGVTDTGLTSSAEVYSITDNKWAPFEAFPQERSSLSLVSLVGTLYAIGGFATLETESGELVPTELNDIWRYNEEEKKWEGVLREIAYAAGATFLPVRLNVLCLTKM
B2: Tuftelin-interacting protein 11 (Homo sapiens), Q9UBB9 (parent)
chain: MSLSHLYRDGEGRIDDDDDERENFEITDWDLQNEFNPNRQRHWQTKEEATYGVWAERDSDDERPSFGGKRARDYSAPVNFISAGLKKGAAEEAELEDSDDEEKPVKQDDFPKDFGPRKLKTGGNFKPSQKGFAGGTKSFMDFGSWERHTKGIGQKLLQKMGYVPGRGLGKNAQGIINPIEAKQRKGKGAVGAYGSERTTQSMQDFPVVDSEEEAEEEFQKELSQWRKDPSGSKKKPKYSYKTVEELKAKGRISKKLTAPQKELSQVKVIDMTGREQKVYYSYSQISHKHNVPDDGLPLQSQQLPQSGKEAKAPGFALPELEHNLQLLIDLTEQEIIQNDRQLQYERDMVVNLFHELEKMTEVLDHEERVISNLSKVLEMVEECERRMQPDCSNPLTLDECARIFETLQDKYYEEYRMSDRVDLAVAIVYPLMKEYFKEWDPLKDCTYGTEIISKWKSLLENDQLLSHGGQDLSADAFHRLIWEVWMPFVRNIVTQWQPRNCDPMVDFLDSWVHIIPVWILDNILDQLIFPKLQKEVENWNPLTDTVPIHSWIHPWLPLMQARLEPLYSPIRSKLSSALQKWHPSDSSAKLILQPWKDVFTPGSWEAFMVKNIVPKLGMCLGELVINPHQQHMDAFYWVIDWEGMISVSSLVGLLEKHFFPKWLQVLCSWLSNSPNYEEITKWYLGWKSMFSDQVLAHPSVKDKFNEALDIMNRAVSSNVGAYMQPGARENIAYLTHTERRKDFQYEAMQERREAENMAQRGIGVAASSVPMNFKDLIETKAEEHNIVFMPVIGKRHEGKQLYTFGRIVIYIDRGVVFVQGEKTWVPTSLQSLIDMAK
partner: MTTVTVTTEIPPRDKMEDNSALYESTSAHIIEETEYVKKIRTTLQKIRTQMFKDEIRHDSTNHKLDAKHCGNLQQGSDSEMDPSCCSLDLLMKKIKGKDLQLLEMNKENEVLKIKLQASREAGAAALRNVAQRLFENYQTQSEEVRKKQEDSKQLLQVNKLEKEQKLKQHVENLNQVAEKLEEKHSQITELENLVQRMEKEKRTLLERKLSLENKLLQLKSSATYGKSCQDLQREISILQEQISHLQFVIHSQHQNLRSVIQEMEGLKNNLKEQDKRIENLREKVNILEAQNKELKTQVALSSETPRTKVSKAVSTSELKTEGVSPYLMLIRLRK
B3: Coiled-coil domain-containing protein 33 (Homo sapiens), Q8N5R6-5 (parent)
chain: MGEPGPPSPPAPKAAPGLIDSFSEMNNYRRAMQKMAEDILSLRRQASILEGENRILRSRLAQQEEEEGQGKASEAQNTVSMKQKLLLSELDMKKLRDRVQHLQNELIRKNDREKELLLLYQAQQPQAALLKQYQGKLQKMKALEETVRHQEKVIEKMERVLEDRLQDRSKPPPLNRQQGKPYTGFPMLSASGLPLGSMGENLPVELYSVLLAENAKLRTELDKNRHQQAPIILQQQALPVDPGELGAGGDLTERLQETHGPGHSECTETLPAQDLLSGTSDKFNLLAKLEHAQSRILSLESQLEDSARRWGREKQDLATRLQEQEKGFRHPSNSIIIEQPVSDPPGVAPRGSGGGAGSHRTPKVTGP
partner: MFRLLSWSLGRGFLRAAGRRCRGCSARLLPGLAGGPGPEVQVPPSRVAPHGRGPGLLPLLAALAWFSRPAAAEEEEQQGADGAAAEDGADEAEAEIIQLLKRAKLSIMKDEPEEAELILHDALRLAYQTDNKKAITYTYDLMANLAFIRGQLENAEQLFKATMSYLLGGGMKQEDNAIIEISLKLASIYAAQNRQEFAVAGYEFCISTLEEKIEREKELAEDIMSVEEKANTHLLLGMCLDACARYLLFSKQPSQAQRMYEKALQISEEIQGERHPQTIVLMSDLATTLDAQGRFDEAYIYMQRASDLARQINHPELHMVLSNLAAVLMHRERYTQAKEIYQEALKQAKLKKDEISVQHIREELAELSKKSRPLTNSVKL
B4: Ribose-phosphate pyrophosphokinase 1 (Homo sapiens), P60891 (parent)
chain: MPNIKIFSGSSHQDLSQKIADRLGLELGKVVTKKFSNQETCVEIGESVRGEDVYIVQSGCGEINDNLMELLIMINACKIASASRVTAVIPCFPYARQDKKDKSRAPISAKLVANMLSVAGADHIITMDLHASQIQGFFDIPVDNLYAEPAVLKWIRENISEWRNCTIVSPDAGGAKRVTSIADRLNVDFALIHKERKKANEVDRMVLVGDVKDRVAILVDDMADTCGTICHAADKLLSAGATRVYAILTHGIFSGPAISRINNACFEAVVVTNTIPQEDKMKHCSKIQVIDISMILAEAIRRTHNGESVSYLFSHVPL
partner: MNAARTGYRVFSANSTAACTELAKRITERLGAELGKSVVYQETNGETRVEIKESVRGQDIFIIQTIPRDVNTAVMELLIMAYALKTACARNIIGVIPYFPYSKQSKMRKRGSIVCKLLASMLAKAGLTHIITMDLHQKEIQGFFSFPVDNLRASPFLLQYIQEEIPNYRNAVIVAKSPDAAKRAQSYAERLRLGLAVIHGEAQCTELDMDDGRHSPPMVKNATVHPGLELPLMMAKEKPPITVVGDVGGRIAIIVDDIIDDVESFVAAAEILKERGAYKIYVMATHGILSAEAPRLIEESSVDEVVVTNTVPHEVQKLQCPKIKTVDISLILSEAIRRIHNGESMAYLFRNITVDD

Variants of: B1
Details: with klh40_human KLHL40, Q2TBA0

Row | effect of a mutation on the interaction | Variant
1 | with no effect | A158T
2 | with no effect | H300R
3 | with no effect | P238Q

Variants of: B2
Details: with ccd68_human CCDC68, Q9H2F9

Row | effect of a mutation on the interaction | Variant
4 | with no effect | R8Q
5 | with no effect | S688L

Variants of: B3
Details: with ttc19_human TTC19, Q6DKK2

Row | effect of a mutation on the interaction | Variant
6 | with no effect | M25V
7 | with no effect | G196R
8 | with no effect | R30L
9 | with no effect | P203L

Variants of: B4
Details: with kpra_human PRPSAP1, Q14558

Row | effect of a mutation on the interaction | Variant
10 | with no effect | D183H

Variants of: B4
Details: with kpra_human PRPSAP1, Q14558
Remark: another data set of the same source

Row | effect of a mutation on the interaction | Variant
11 | with no effect | D203H
